From patent US20120128584A1 (ONCOTHERAPY SCIENCE, published 2012)

Molecular target: T1, placental cadherin (P-cadherin; CDH3) (human, UniProt P22223 108-829)
T1 construct: Native CDH3 on the surface of the cancer cell lines H358 and KLM-1; also called native CDH3 protein; CDH3 antigen
Assay: hybridoma screening on cancer cells carrying native CDH3
Excerpt: CDH3 gene encoded extracellular domain (SEQ ID NO: 3) was amplified from cDNA pool derived from cancer cells. The product was cloned into the pcDNA3.1 (Invitrogen, CA). To produce CDH3-specific antibody, mice were immunized subcutaneously with the domain expression vector (17.5 mcg/injection) every two weeks for a month. After the confirmation of the titer of antisera, spleenocytes were extracted from the mice and fused to myeloma cells to prepare hybridomas. We screened the hybridomas which can recognize native CDH3 antigen on the surface of the cancer cells. […] The hybridoma clone #6 was used to inject intraperitoneally into mice. The ascites was recovered after 2 to 3 weeks. Finally antibody was purified from the ascites using Protein A column (GE Healthcare, NJ).

T1 sequence (P22223 108-829 limits assumed): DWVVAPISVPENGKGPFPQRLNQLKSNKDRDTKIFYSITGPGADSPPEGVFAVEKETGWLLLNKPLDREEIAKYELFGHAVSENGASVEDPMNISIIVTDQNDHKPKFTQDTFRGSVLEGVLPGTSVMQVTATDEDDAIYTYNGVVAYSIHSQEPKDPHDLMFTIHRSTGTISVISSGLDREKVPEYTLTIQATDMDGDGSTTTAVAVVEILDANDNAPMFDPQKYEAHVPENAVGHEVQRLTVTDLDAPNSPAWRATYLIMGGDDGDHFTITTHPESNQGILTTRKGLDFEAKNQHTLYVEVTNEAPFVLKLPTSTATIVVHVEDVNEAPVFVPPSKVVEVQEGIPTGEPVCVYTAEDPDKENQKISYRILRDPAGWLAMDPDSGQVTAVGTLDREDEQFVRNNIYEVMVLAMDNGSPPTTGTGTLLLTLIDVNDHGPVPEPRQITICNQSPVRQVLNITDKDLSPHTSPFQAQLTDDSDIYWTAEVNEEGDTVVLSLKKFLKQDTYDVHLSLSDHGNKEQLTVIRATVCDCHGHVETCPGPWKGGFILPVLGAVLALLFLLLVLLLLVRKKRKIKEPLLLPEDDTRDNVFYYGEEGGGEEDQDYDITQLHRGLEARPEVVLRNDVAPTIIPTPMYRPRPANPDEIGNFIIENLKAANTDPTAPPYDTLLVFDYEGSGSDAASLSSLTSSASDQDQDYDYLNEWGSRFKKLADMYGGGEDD

binding result: binds
B1: Anti-CDH3 mouse monoclonal antibody produced by hybridoma clone #6 (antibody, V domains shown)
VH: QVQLQQPGAELVKPGTSVKLSCKSSGYTFTSYWIHWVKQRPGHGLEWIGEIDPSDNYTYYNQNFKGKATLTIDKSSSTAYMQLNSLTSEDSAVFYCARSGYGNLFVYWGQGTLVTVSA
VL: QIVLTQSPAIMSSSPGEKVTMSCSATSSVTYMYWYQQKPGSSPKPWIFRTSNLASGVPTRFSGSGSGTSYSLTISSMEAEDAATYYCQHYHIYPRTFGGGTKL
notes: The VL as printed ends at 'TKL'
